Measurements reported in paper PMC13522589, “Weak SLP-76/PLC-γ1 interaction fine-tunes T cell receptor signal strength to optimize T cell responsiveness” (Nature Communications, 2026).

B1: SLP-76 PRR (aa 185-200) peptide, wild type (peptide, UniProt Q13094 185-200, looked up)
peptide: QPPVPPQRPMAALPPP
notes: SLP-76 proline-rich region, residues 185-200; The peptides are called 'a set of short peptides'; also called SLP-76^WT; SLP-76 PRR_(185-200)
B2: Phospholipase C-γ1 (PLC-γ1), 1–1219 (enzyme, UniProt P19174 1-1219, looked up)
chain: MAGAASPCANGCGPGAPSDAEVLHLCRSLEVGTVMTLFYSKKSQRPERKTFQVKLETRQITWSRGADKIEGAIDIREIKEIRPGKTSRDFDRYQEDPAFRPDQSHCFVILYGMEFRLKTLSLQATSEDEVNMWIKGLTWLMEDTLQAPTPLQIERWLRKQFYSVDRNREDRISAKDLKNMLSQVNYRVPNMRFLRERLTDLEQRSGDITYGQFAQLYRSLMYSAQKTMDLPFLEASTLRAGERPELCRVSLPEFQQFLLDYQGELWAVDRLQVQEFMLSFLRDPLREIEEPYFFLDEFVTFLFSKENSVWNSQLDAVCPDTMNNPLSHYWISSSHNTYLTGDQFSSESSLEAYARCLRMGCRCIELDCWDGPDGMPVIYHGHTLTTKIKFSDVLHTIKEHAFVASEYPVILSIEDHCSIAQQRNMAQYFKKVLGDTLLTKPVEISADGLPSPNQLKRKILIKHKKLAEGSAYEEVPTSMMYSENDISNSIKNGILYLEDPVNHEWYPHYFVLTSSKIYYSEETSSDQGNEDEEEPKEVSSSTELHSNEKWFHGKLGAGRDGRHIAERLLTEYCIETGAPDGSFLVRESETFVGDYTLSFWRNGKVQHCRIHSRQDAGTPKFFLTDNLVFDSLYDLITHYQQVPLRCNEFEMRLSEPVPQTNAHESKEWYHASLTRAQAEHMLMRVPRDGAFLVRKRNEPNSYAISFRAEGKIKHCRVQQEGQTVMLGNSEFDSLVDLISYYEKHPLYRKMKLRYPINEEALEKIGTAEPDYGALYEGRNPGFYVEANPMPTFKCAVKALFDYKAQREDELTFIKSAIIQNVEKQEGGWWRGDYGGKKQLWFPSNYVEEMVNPVALEPEREHLDENSPLGDLLRGVLDVPACQIAIRPEGKNNRLFVFSISMASVAHWSLDVAADSQEELQDWVKKIREVAQTADARLTEGKIMERRKKIALELSELVVYCRPVPFDEEKIGTERACYRDMSSFPETKAEKYVNKAKGKKFLQYNRLQLSRIYPKGQRLDSSNYDPLPMWICGSQLVALNFQTPDKPMQMNQALFMTGRHCGYVLQPSTMRDEAFDPFDKSSLRGLEPCAISIEVLGARHLPKNGRGIVCPFVEIEVAGAEYDSTKQKTEFVVDNGLNPVWPAKPFHFQISNPEFAFLRFVVYEEDMFSDQNFLAQATFPVKGLKTGYRAVPLKNNYSEDLELASLLIKIDIFPAKENGD
B3: SLP-76 PRR peptide (aa 185–200), wild type (peptide, UniProt Q13094 185-200, looked up)
peptide: QPPVPPQRPMAALPPP
notes: also called SLP-76 185–200 (WT); SLP-76 PRR_(185–200) peptide
B4: SLP-76^WT polypeptide (aa 103–258, Y113F, Y173F) (domain or fragment, UniProt Q13094 103-258, looked up)
chain: GGWSSFEEDDFESPNDDQDGEDDGDYESPNEEEEAPVEDDADYEPPPSNDEEALQNSILPAKPFPNSNSMFIDRPPSGKTPQQPPVPPQRPMAALPPPPAGRNHSPLPPPQTNHEEPSRSRNHKTAKLPAPSIDRSTKPPLDRSLAPFDREPFTLG
notes: source: E. coli Rosetta 2(DE3)pLysS, purified (Glutathione Resin, TEV cleavage, HisTrap, SEC); not shown: His6, N-terminal, cleaved; GST, N-terminal, cleaved

How the values were obtained:
[1] = molecular target: LAT 125-178 (Homo sapiens) (UniProt O43561); assay: ITC; details: cited from earlier work
[2] = molecular target: LAT 161-180 (Homo sapiens) (UniProt O43561); assay: ITC; details: cited from earlier work
[3] = molecular target: SLP-76 157-420 (Homo sapiens) (UniProt Q13094); assay: ITC; details: cited from earlier work
[4] = molecular target: SLP-76 159-533 (Homo sapiens) (UniProt Q13094); assay: ITC; details: cited from earlier work
[5] = molecular target: SLP-76 (Homo sapiens) (UniProt Q13094); assay: ITC; details: cited from earlier work
[6] = molecular target: LAT 122-140 (Homo sapiens) (UniProt O43561); assay: ITC; details: cited from earlier work
[7] = molecular target: T1, PLC-γ1 (1-1219) (UniProt P19174 1-1219); assay: ITC; PEAQ-ITC, 5 °C, 20 mM Hepes pH 7.4, 100 mM NaCl, 0.1 mM DTT; 4 µM in the cell and 40 µM in the syringe, 19 injections of 2 µL; single binding site model with 1:1 stoichiometry; details: both partners purified
T1 construct: the text calls it full length PLC-γ1; this is the only PLC-γ1 that the methods describe; also called Phospholipase C-γ1; PLC-g1; source: Sf9, purified (HaloLink Resin, TEV cleavage, SEC)
T1 sequence (looked up): B2 chain

[8] = molecular target: T2, phosphorylated LAT (48–233aa, pY132, pY171) (UniProt O43561-2 48-233, phosphotyrosine at 132 and 171 (in vitro phosphorylation, validated by mass spectrometry)); assay: cell-based or functional assay
T2 sequence (looked up): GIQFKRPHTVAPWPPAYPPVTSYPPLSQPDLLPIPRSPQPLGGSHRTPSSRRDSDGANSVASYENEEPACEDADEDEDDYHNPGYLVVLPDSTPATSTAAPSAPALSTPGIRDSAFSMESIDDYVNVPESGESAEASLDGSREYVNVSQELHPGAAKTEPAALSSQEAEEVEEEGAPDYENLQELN

[9] = molecular target: B2; assay: ITC; VP-ITC or PEAQ-ITC; 20 mM Hepes pH 7.4, 100 mM NaCl, 0.1 mM DTT, 5 °C; 4 µM in the cell, 40 µM in the syringe; fit to a single binding site with 1:1 stoichiometry; details: both partners purified
[10] = molecular target: B2; assay: cell-based or functional assay

SLP-76 157-420 (Homo sapiens), sequence (Q13094 157-420): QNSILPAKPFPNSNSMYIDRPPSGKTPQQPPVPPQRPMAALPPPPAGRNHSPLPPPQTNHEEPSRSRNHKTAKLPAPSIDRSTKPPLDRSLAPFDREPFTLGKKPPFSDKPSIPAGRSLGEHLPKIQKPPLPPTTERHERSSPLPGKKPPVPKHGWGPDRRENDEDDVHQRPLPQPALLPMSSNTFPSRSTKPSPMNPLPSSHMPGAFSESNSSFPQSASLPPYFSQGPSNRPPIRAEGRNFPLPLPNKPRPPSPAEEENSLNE
LAT 125-178 (Homo sapiens), sequence (O43561 125-178): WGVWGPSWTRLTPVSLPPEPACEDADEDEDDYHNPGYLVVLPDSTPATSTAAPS
SLP-76 159-533 (Homo sapiens), sequence (Q13094 159-533): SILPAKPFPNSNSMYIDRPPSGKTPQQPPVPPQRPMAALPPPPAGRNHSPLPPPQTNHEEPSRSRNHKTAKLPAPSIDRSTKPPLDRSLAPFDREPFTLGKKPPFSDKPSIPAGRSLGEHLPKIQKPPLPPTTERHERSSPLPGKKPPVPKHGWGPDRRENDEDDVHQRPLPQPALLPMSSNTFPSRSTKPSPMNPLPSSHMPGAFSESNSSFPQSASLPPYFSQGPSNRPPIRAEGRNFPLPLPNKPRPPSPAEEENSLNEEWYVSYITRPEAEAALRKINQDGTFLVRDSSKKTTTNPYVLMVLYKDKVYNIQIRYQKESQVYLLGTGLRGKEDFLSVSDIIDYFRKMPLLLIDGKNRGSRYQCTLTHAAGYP
SLP-76 (Homo sapiens), sequence (Q13094 whole entry): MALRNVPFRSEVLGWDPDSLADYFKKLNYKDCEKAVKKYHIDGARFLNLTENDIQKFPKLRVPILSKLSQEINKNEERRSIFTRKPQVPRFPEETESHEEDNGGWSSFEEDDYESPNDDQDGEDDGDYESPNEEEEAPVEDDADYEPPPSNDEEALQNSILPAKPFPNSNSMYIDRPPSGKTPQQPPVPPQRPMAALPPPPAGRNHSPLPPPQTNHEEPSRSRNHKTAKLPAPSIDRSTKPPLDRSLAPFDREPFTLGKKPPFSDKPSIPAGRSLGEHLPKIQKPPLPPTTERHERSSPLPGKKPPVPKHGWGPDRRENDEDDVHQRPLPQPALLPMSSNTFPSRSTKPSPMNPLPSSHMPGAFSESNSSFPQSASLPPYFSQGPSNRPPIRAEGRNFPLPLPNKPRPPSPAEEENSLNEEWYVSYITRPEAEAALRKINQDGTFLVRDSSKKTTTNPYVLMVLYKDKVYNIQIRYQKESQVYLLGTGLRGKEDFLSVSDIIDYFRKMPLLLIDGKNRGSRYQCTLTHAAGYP

In the case of Gads 1-322 (from UniProt O75791), the Kd [1] is listed as 0.213 µM, the Kd [2] is listed as 0.164 µM and the Kd [3] is listed as 0.019 µM. For the same molecule, the Kd [4] was 0.0036 µM.

In the case of PLC-γ1 1-1219 (from UniProt P19174), the Kd [1] is listed as 0.084 µM.

In the case of PLC-γ1 (from UniProt P19174), the Kd [5] is given as 3.35 µM.

For PLC-γ1 550-846 (from UniProt P19174), the Kd [6] is given as 0.062 µM and the Kd [3] is given as 3.35 µM.

Molecule B1 has a Kd [7] of 2.36 µM.

With B2 the “PIP2 hydrolysis (IP3) by PLC-γ1 on liposomes containing phospho-LAT alone, compared with liposomes incubated with PLC-γ1 alone” value [8] was 2.1 fold.

With B3 the Kd [9] was 3.99 µM and the dH [9] was -13.8 kJ/mol.

With B4 the “PLC-γ1 activity on PIP2-bearing liposomes (IP3): LAT/Gads/SLP-76^WT/PLC-γ1 tetramer against PLC-γ1 with phospho-LAT alone” value [10] was 1.7 fold, the Kd [9] was 2.32 µM and the dH [9] was -15.9 kJ/mol.
